Columns and labels:
[1] = biological target: recombinant albicin (Anopheles albimanus complement inhibitor) (Anopheles albimanus); experiment: SPR
C3b (human) = C3b (human) (UniProt P01024); experiment: SPR

Chain of properdin (P27918 28-469): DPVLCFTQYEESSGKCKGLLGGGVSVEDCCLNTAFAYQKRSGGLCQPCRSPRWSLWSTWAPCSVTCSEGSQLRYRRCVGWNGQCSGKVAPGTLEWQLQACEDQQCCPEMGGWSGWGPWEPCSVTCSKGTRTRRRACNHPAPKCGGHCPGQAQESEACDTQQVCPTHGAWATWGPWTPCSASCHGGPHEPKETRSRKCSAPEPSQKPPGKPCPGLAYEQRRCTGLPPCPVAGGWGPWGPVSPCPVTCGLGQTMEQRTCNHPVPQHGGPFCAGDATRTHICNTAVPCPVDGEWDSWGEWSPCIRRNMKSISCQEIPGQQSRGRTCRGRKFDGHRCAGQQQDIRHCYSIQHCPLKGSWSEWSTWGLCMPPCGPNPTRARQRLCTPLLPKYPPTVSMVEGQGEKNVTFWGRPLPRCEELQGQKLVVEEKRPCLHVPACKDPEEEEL
Chain of recombinant albicin (Anopheles albimanus complement inhibitor) (Anopheles albimanus) (A0A1Y9G8D0 27-142, tags left off): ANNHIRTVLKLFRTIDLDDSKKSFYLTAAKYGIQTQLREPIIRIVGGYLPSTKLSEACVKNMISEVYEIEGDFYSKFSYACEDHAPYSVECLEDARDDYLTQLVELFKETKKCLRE

Question: What does the source list for “properdin (from UniProt P27918 28-469) (natural protein)”?
Answer: K1/2 (concentration at half-saturation) [1]: 11.6 nM; response of properdin coated on the C3b surface (C3b (human)): 1200 RU
